# Experimental data reported in US20160130333A1 (published 2016).
# Biological target: histones
# Assay: ELISA
row,Kd,Binder
1,6.6 nM,"mIMMU-H4 (antibody, V domains shown) VH: QVQLQQSGAELVRPGASVKLSCTASGFNIKDDYLHWVKQRPEQGLEWIGWIDPENGDTEYASKFQGKATITADTSSNTAYLQLSSLTSEDTAVYYCSSPLVHLRTFAYWGQGTLVTVS VL: DIQLTQSPASLAVSLGQRATISCRASESVDSYDNSLHWFQQKPGQPPKLLIYLASNLESGVPARFSGSGSRTDFTLTIDPVEADDAATYYCQQNNEDPWTFGGGTKLEIKR"
2,0.96 nM,"cIMMU-H4 (antibody, V domains shown) VH: QVQLQQSGAELVRPGASVKLSCTASGFNIKDDYLHWVKQRPEQGLEWIGWIDPENGDTEYASKFQGKATITADTSSNTAYLQLSSLTSEDTAVYYCSSPLVHLRTFAYWGQGTLVTVSA VL: DIQLTQSPASLAVSLGQRATISCRASESVDSYDNSLHWFQQKPGQPPKLLIYLASNLESGVPARFSGSGSRTDFTLTIDPVEADDAATYYCQQNNEDPWTFGGGTKLEIKR"
